In US20250170255A1 (Daiichi Sankyo, published 2025):
One block for each binder: values may come before it.

Tests used:
TROP2 on FaDu cells = target: T1, TROP2 on FaDu cells (human, UniProt P09758 27-323); experiment: cell-based or functional assay
T1 sequence (looked up): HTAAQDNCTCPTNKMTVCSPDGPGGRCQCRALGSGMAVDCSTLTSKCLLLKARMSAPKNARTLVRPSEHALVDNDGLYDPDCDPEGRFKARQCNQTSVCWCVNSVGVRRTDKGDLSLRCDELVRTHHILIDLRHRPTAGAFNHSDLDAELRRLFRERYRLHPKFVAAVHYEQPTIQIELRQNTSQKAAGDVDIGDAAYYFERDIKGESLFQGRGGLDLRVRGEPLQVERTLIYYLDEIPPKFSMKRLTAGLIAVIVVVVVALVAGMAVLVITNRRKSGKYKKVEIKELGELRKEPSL

[1] = target: T2, biotinylated human TROP2 antigen (human, UniProt P09758 27-274, C-terminal Avi tag sequence biotinylated); experiment: ELISA, anti-FLAG detection, with and without MMP1
T2 construct: extracellular domain
T2 sequence (looked up): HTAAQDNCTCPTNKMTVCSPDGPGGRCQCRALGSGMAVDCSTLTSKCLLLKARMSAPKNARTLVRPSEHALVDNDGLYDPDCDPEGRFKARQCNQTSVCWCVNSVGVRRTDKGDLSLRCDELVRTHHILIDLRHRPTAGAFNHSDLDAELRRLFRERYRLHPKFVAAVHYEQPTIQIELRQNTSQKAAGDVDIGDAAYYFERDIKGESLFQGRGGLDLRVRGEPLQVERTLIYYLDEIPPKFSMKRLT
Protocol: (§1) The resultant was then added to the plate comprising the human TROP2 antigen immobilized thereon at 50 μl/well. The bound scFv was detected using the HRP-labeled anti-FLAG antibody (Sigma-Aldrich) diluted to 5,000-fold with ELISA buffer.
The antibody was adjusted to 1 μM with the use of MMP buffer, MMP1 was added to the final concentration of 1 μM or 0 μM, and the reaction was allowed to proceed at 37° C. for 15 minutes. Thereafter, the antibody with the concentration thereof being adjusted with ELISA buffer was added to the wells.

[2] = target: T2, biotinylated human TROP2 antigen; experiment: ELISA, immobilised biotinylated human TROP2 antigen, anti-FLAG-HRP detection; after MMP1 pre-treatment (mask linker cleaved)
Protocol: (§2) NeutrAvidin (Thermo Fisher Scientific) diluted to 1 μg/ml with PBS was added at 50 μl/well to a 96-well Maxi-sorp plate (Black, Nunc) and immobilized at 4° C. overnight. The plate was washed with PBS containing 0.05% (w/v) Tween-20 (BioRad) (ELISA buffer) and then blocked with Blocker Casein (Thermo Fisher Scientific). The plate was washed with ELISA buffer, the biotinylated human TROP2 antigen (Accession Number: P09758; the extracellular domain was purified by the method known to a person skilled in the art and the C-terminal Avi tag sequence was then biotinylated) diluted to 1 μg/ml with PBS was added at 50 μl/well, and the resultant was then agitated for 30 minutes at room temperature. […] The plate was washed with ELISA buffer, the SuperSignal Pico ELISA chemiluminescent substrate (Thermo Fisher Scientific) was added, and chemiluminescence 10 minutes thereafter was then assayed using a plate reader.
as §1

[3] = target: T2, biotinylated human TROP2 antigen; experiment: ELISA, immobilised biotinylated human TROP2 antigen, anti-FLAG-HRP detection; without MMP1
Protocol: as §2, §1

[4] = target: T2, biotinylated human TROP2 antigen; experiment: ELISA, immobilised biotinylated human TROP2 antigen, anti-FLAG-HRP detection; after MMP1 pre-treatment (mask linker cleaved); remark: listed apart in the source
Protocol: as §2, §1

[5] = target: T2, biotinylated human TROP2 antigen; experiment: ELISA, immobilised biotinylated human TROP2 antigen, chemiluminescence; after MMP1 pre-treatment
Protocol: (§3) NeutrAvidin (Thermo Fisher Scientific) diluted to 1 μg/ml with PBS was added at 50 μl/well to a 96-well Maxi-sorp plate (Black, Nunc) and immobilized at 4° C. overnight. The plate was washed with PBS containing 0.05% (w/v) Tween-20 (BioRad) (ELISA buffer) and then blocked with Blocker Casein (Thermo Fisher Scientific). The plate was washed with ELISA buffer, the biotinylated human TROP2 antigen (Accession Number: P09758; the extracellular domain was purified by the method known to a person skilled in the art and the C-terminal Avi tag sequence was then biotinylated) diluted to 1 μg/ml with PBS was added at 50 μl/well, and the resultant was then agitated for 30 minutes at room temperature. […] The plate was washed with ELISA buffer, 50 μl of the horseradish peroxidase (HRP)-labeled anti-human IgG antibody (Jackson Immuno Research Laboratories) diluted to 2,500-fold with ELISA buffer was added, and the resultant was then agitated for 30 minutes at room temperature. The plate was washed with ELISA buffer, the SuperSignal Pico ELISA chemiluminescent substrate (Thermo Fisher Scientific) was added, and chemiluminescence 10 minutes thereafter was then assayed using a plate reader.

[6] = target: T2, biotinylated human TROP2 antigen; experiment: ELISA, immobilised biotinylated human TROP2 antigen, chemiluminescence
Protocol: as §3

[7] = target: T2, biotinylated human TROP2 antigen; experiment: ELISA, immobilised biotinylated human TROP2 antigen, chemiluminescence; without MMP1
Protocol: as §3

[8] = target: T2, biotinylated human TROP2 antigen; experiment: ELISA pH 7.5 against pH 5.5
[9] = target: T2, biotinylated human TROP2 antigen; experiment: ELISA, immobilised biotinylated human TROP2 antigen, chemiluminescence; after MMP1 pre-treatment (mask linker cleaved)
Protocol: as §3

[10] = target: T2, biotinylated human TROP2 antigen; experiment: ELISA with and without MMP1
[11] = target: T2, biotinylated human TROP2 antigen; experiment: ELISA, immobilised biotinylated human TROP2 antigen, chemiluminescence; without MMP1; remark: listed apart in the source
Protocol: as §3

[12] = target: T2, biotinylated human TROP2 antigen; experiment: ELISA, immobilised biotinylated human TROP2 antigen, chemiluminescence; pH 7.5
Protocol: (§4) The plate was washed with PBS containing 0.05% (w/v) Tween-20 (BioRad) (ELISA buffer) and then blocked with Blocker Casein (Thermo Fisher Scientific). The plate was washed with ELISA buffer, the biotinylated human TROP2 antigen (Accession Number: P09758; the extracellular domain was purified by the method known to a person skilled in the art and the C-terminal Avi tag sequence was then biotinylated) diluted to 1 μg/ml with PBS was added at 50 μl/well, and the resultant was then agitated for 30 minutes at room temperature. […] The plate was washed with ELISA buffer, 50 μl of the horseradish peroxidase (HRP)-labeled anti-human IgG antibody (Jackson Immuno Research Laboratories) diluted to 2,500-fold with ELISA buffer was added, and the resultant was then agitated for 30 minutes at room temperature. The plate was washed with ELISA buffer, the SuperSignal Pico ELISA chemiluminescent substrate (Thermo Fisher Scientific) was added, and chemiluminescence 10 minutes thereafter was then assayed using a plate reader. […]

[13] = target: T2, biotinylated human TROP2 antigen; experiment: ELISA, immobilised biotinylated human TROP2 antigen, chemiluminescence; pH 5.5
[14] = target: T2, biotinylated human TROP2 antigen; experiment: ELISA, immobilised biotinylated human TROP2 antigen, chemiluminescence; pH 7.5; remark: listed apart in the source
Protocol: as §4

[15] = target: T2, biotinylated human TROP2 antigen; experiment: as above; remark: listed apart in the source
Protocol: as §4

[16] = target: T2, biotinylated human TROP2 antigen; experiment: ELISA, immobilised biotinylated human TROP2 antigen, chemiluminescence; pH 5.5; remark: listed apart in the source
[17] = target: T2, biotinylated human TROP2 antigen; experiment: as above; remark: listed apart in the source
[18] = target: T2, biotinylated human TROP2 antigen; experiment: ELISA, immobilised biotinylated human TROP2 antigen, chemiluminescence; pH 7.5; remark: listed apart in the source

B1: MHT1808-PBD-ADC (antibody, human IgG1, kappa)
heavy: not shown
light: DIQMTQSPSSLSASVGDRVTITCKASQDVSTAVAWYQQKPGKAPKLLIYSASYRYTGVPSRFSGSGSGTDFTLTISSLQPEDFAVYYCQQHYITPLTFGQGTKLEIKRTVAAPSVFIFPPSDEQLKSGTASVVCLLNNFYPREAKVQWKVDNALQSGNSQESVTEQDSKDSTYSLSSTLTLSKADYEKHKVYACEVTHQGLSSPVTKSFNRGEC
modifications: N297 glycan remodelled to azide-bearing MSG1-type glycan and conjugated to Linker 2 (PBD drug linker); average number of drugs bound 1.9
in vitro growth inhibitory activity on FaDu cells, EC50 ratio (pH 7.4/pH 5.5) (TROP2 on FaDu cells): 10.7

B2: MHT1221-PBD-ADC (antibody, human IgG1, kappa)
heavy: not shown
light: DIQMTQSPSSLSASVGDRVTITCKASQDVSTAVAWYQQKPGKAPKLLIYSASYRYTGVPSRFSGSGSGTDFTLTISSLQPEDFAVYYCQQHYITPLTFGQGTKLEIKRTVAAPSVFIFPPSDEQLKSGTASVVCLLNNFYPREAKVQWKVDNALQSGNSQESVTEQDSKDSTYSLSSTLTLSKADYEKHKVYACEVTHQGLSSPVTKSFNRGEC
modifications: N297 glycan remodelled to azide-bearing MSG1-type glycan and conjugated to Linker 2 (PBD drug linker); average number of drugs bound 1.9
in vitro growth inhibitory activity on FaDu cells, EC50 ratio (pH 7.4/pH 5.5) (TROP2 on FaDu cells): 1.9

B5: anti-TROP2 antibody HT1-11 (antibody)
heavy: not shown
light: DIQMTQSPSSLSASVGDRVTITCKASQDVSTAVAWYQQKPGKAPKLLIYSASYRYTGVPSRFSGSGSGTDFTLTISSLQPEDFAVYYCQQHYITPLTFGQGTKLEIKRTVAAPSVFIFPPSDEQLKSGTASVVCLLNNFYPREAKVQWKVDNALQSGNSQESVTEQDSKDSTYSLSSTLTLSKADYEKHKVYACEVTHQGLSSPVTKSFNRGEC
notes: Known antibody of WO 2015/098099; Full-length entries
EC50 (read off the curve) [5]: ~0.5 nM
EC50 (read off the curve) [6]: ~0.6 nM
EC50 (read off the curve) [7]: ~0.5 nM

B6: anti-TROP2 masked antibody MHT1805 (antibody)
heavy: not shown
light: DIQMTQSPSSLSASVGDRVTITCKASQDVSTAVAWYQQKPGKAPKLLIYSASYRYTGVPSRFSGSGSGTDFTLTISSLQPEDFAVYYCQQHYITPLTFGQGTKLEIKRTVAAPSVFIFPPSDEQLKSGTASVVCLLNNFYPREAKVQWKVDNALQSGNSQESVTEQDSKDSTYSLSSTLTLSKADYEKHKVYACEVTHQGLSSPVTKSFNRGEC
notes: His cluster linker; Full-length entries
EC50 ratio (neutral pH conditions/acidic pH conditions) [8]: 2.3

B10: anti-TROP2 masked antibody MHT1804 (antibody)
heavy: not shown
light: DIQMTQSPSSLSASVGDRVTITCKASQDVSTAVAWYQQKPGKAPKLLIYSASYRYTGVPSRFSGSGSGTDFTLTISSLQPEDFAVYYCQQHYITPLTFGQGTKLEIKRTVAAPSVFIFPPSDEQLKSGTASVVCLLNNFYPREAKVQWKVDNALQSGNSQESVTEQDSKDSTYSLSSTLTLSKADYEKHKVYACEVTHQGLSSPVTKSFNRGEC
notes: as for B6
EC50 ratio (neutral pH conditions/acidic pH conditions) [8]: 3.6

Results, then the binder that gave them:

EC50 ratio of binding intensity (without MMP1 / with MMP1) [1]: 7.9
EC50 (read off the curve) [2]: ~8 nM
B3: MHT1001 (scFv)
scFv: AMGYLALKHPWPGLAENSGSGGGGSVLVPMAMMASGGSDVNSQVQLVQSGAEVKKPGASVKVSCKASGYTFTTAGMQWVRQAPGQGLEWMGWINTHSGVPKYAEDFKGRVTISADTSTSTAYLQLSSLKSEDTAVYYCARSGFGSSYWYFDVWGQGTLVTVSSGGGGSGGGGSGGGGSDIQMTQSPSSLSASVGDRVTITCKASQDVSTAVAWYQQKPGKAPKLLIYSASYRYTGVPSRFSGSGSGTDFTLTISSLQPEDFAVYYCQQHYITPLTFGQGTKLEIKRGAPSGDYKDDDDKGAAAHHHHHH

EC50 ratio of binding intensity (without MMP1 / with MMP1) [1]: 4.3
EC50 (read off the curve) [3]: ~10 nM
EC50 (read off the curve) [4]: ~3 nM
B4: MHT1002 (scFv)
scFv: AMGYLALKHPWPGLAENSGSGGGGSVLVPMAMMASGGSDVNSDIQMTQSPSSLSASVGDRVTITCKASQDVSTAVAWYQQKPGKAPKLLIYSASYRYTGVPSRFSGSGSGTDFTLTISSLQPEDFAVYYCQQHYITPLTFGQGTKLEIKRGGGGSGGGGSGGGGSQVQLVQSGAEVKKPGASVKVSCKASGYTFTTAGMQWVRQAPGQGLEWMGWINTHSGVPKYAEDFKGRVTISADTSTSTAYLQLSSLKSEDTAVYYCARSGFGSSYWYFDVWGQGTLVTVSSGAPSGDYKDDDDKGAAAHHHHHH
notes: Mimotope peptide, MMP cleavable linker, HT1-11 scFv, FLAG tag, His tag

EC50 (read off the curve) [9]: ~0.3 nM
EC50 ratio of binding intensity (without MMP1 / with MMP1) [10]: 104
EC50 (read off the curve) [11]: ~30 nM
B7: anti-TROP2 masked antibody MHT1007 (antibody)
heavy: not shown
light: DIQMTQSPSSLSASVGDRVTITCKASQDVSTAVAWYQQKPGKAPKLLIYSASYRYTGVPSRFSGSGSGTDFTLTISSLQPEDFAVYYCQQHYITPLTFGQGTKLEIKRTVAAPSVFIFPPSDEQLKSGTASVVCLLNNFYPREAKVQWKVDNALQSGNSQESVTEQDSKDSTYSLSSTLTLSKADYEKHKVYACEVTHQGLSSPVTKSFNRGEC
notes: IgG-type; MHT1001 mimotope peptide and MMP cleavable linker fused to the heavy chain; Full-length entries

EC50 (read off the curve) [12]: ~50 nM
EC50 ratio (neutral pH conditions/acidic pH conditions) [8]: 1.7
B8: anti-TROP2 masked antibody MHT1221 (antibody)
heavy: not shown
light: DIQMTQSPSSLSASVGDRVTITCKASQDVSTAVAWYQQKPGKAPKLLIYSASYRYTGVPSRFSGSGSGTDFTLTISSLQPEDFAVYYCQQHYITPLTFGQGTKLEIKRTVAAPSVFIFPPSDEQLKSGTASVVCLLNNFYPREAKVQWKVDNALQSGNSQESVTEQDSKDSTYSLSSTLTLSKADYEKHKVYACEVTHQGLSSPVTKSFNRGEC
notes: No His cluster; Full-length entries

EC50 (read off the curve) [13]: ~30 nM
EC50 ratio (neutral pH conditions/acidic pH conditions) [8]: 3.9
EC50 (read off the curve) [14]: ~100 nM
B9: anti-TROP2 masked antibody MHT1803 (antibody)
heavy: not shown
light: DIQMTQSPSSLSASVGDRVTITCKASQDVSTAVAWYQQKPGKAPKLLIYSASYRYTGVPSRFSGSGSGTDFTLTISSLQPEDFAVYYCQQHYITPLTFGQGTKLEIKRTVAAPSVFIFPPSDEQLKSGTASVVCLLNNFYPREAKVQWKVDNALQSGNSQESVTEQDSKDSTYSLSSTLTLSKADYEKHKVYACEVTHQGLSSPVTKSFNRGEC
notes: as for B6

EC50 (read off the curve) [15]: ~60 nM
EC50 ratio (neutral pH conditions/acidic pH conditions) [8]: 11.4
EC50 (read off the curve) [16]: ~5 nM
B11: anti-TROP2 masked antibody MHT1809 (antibody)
heavy: not shown
light: DIQMTQSPSSLSASVGDRVTITCKASQDVSTAVAWYQQKPGKAPKLLIYSASYRYTGVPSRFSGSGSGTDFTLTISSLQPEDFAVYYCQQHYITPLTFGQGTKLEIKRTVAAPSVFIFPPSDEQLKSGTASVVCLLNNFYPREAKVQWKVDNALQSGNSQESVTEQDSKDSTYSLSSTLTLSKADYEKHKVYACEVTHQGLSSPVTKSFNRGEC
notes: as for B6

EC50 (read off the curve) [17]: ~7 nM
EC50 ratio (neutral pH conditions/acidic pH conditions) [8]: 7.8
EC50 (read off the curve) [18]: ~60 nM
B12: anti-TROP2 masked antibody MHT1810 (antibody)
heavy: not shown
light: DIQMTQSPSSLSASVGDRVTITCKASQDVSTAVAWYQQKPGKAPKLLIYSASYRYTGVPSRFSGSGSGTDFTLTISSLQPEDFAVYYCQQHYITPLTFGQGTKLEIKRTVAAPSVFIFPPSDEQLKSGTASVVCLLNNFYPREAKVQWKVDNALQSGNSQESVTEQDSKDSTYSLSSTLTLSKADYEKHKVYACEVTHQGLSSPVTKSFNRGEC
notes: His at every other position in the linker; Full-length entries; also called HMT1810
